Measured values reported in the supplement of paper PMC11780869.

test system: Bacillus subtilis; experiment: cleaved RNA product abundance (RNA/gDNA barcode ratio) relative to median wild-type variant (ratio to wild type); higher = more accumulation of the downstream cleavage product; details: experiment (reporter, strain, medium): exp 8a: truncated aprE reporter, strain BJT201 with 2% xylose (RNase J1 expressed); cleavage site: glnRA (positions -5 to +31 mutated)
In short: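 The B. subtilis chromosome carried reporter mRNAs, truncated aprE or tetM, containing barcoded RNase Y cleavage-site windows mutagenized using oligos with a 9% error rate. After growth in LB at 37°C from OD600 0.0003 to 0.3, cleaved RNA was gel-selected, reverse transcribed and barcode-sequenced next to genomic DNA barcodes, with UMI collapsing. Each construct's RNA:gDNA barcode ratio was scaled to the median construct with the unmutated site. That scaled ratio is reported as cleaved product abundance.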

Sequence	cleaved RNA product abundance
CGACATGTCCCGCTTCTTTCATTAATCCGTTAGCAACTGTTTTGCTTTATAGATTTACCTTTTAAGAGGAGGAAT	0.649
CGACATGTCCCGCTTCTTTCATTAATCCGTTAGCAACTGTTTTGGTACATACATTTACCTTTTAAGAGGAGGAAT	0.119
CGACATGTCCCGCTTCTTTCATTAATCCGTTAGCAACTGTTTTGGTAGATACATTTACCTTTTAAGAGGAGGAAT	0.115
CGACATGTCCCGCTTCTTTCATTAATCCGTTAGCAACTGTTTTGGTATATACATTTACATTTTAAGAGGAGGAAT	0.529
CGACATGTCCCGCTTCTTTCATTAATCCGTTAGCAACTGTTTTGGTATATACATTTACCTTTTAAGAGGAGGAAT	0.237
CGACATGTCCCGCTTCTTTCATTAATCCGTTAGCAACTGTTTTGGTATATATATTTACCTTTTAAGAGGAGGAAT	0.224
CGACATGTCCCGCTTCTTTCATTAATCCGTTAGCAACTGTTTTGTGATATACATTTACCTTTTAAGAGGAGGAAT	0.344
CGACATGTCCCGCTTCTTTCATTAATCCGTTAGCAACTGTTTTGTTAAATACATTTACCTTTTAAGAGGAGGAAT	0.414
CGACATGTCCCGCTTCTTTCATTAATCCGTTAGCAACTGTTTTGTTATAAACATTTACCTTTTAAGAGGAGGAAT	0.322
CGACATGTCCCGCTTCTTTCATTAATCCGTTAGCAACTGTTTTGTTATAGACATTTACCTTTTAAGAGGAGGAAT	0.265
CGACATGTCCCGCTTCTTTCATTAATCCGTTAGCAACTGTTTTGTTATATACAGTTACCTTTTAAGAGGAGGAAT	0.162
CGACATGTCCCGCTTCTTTCATTAATCCGTTAGCAACTGTTTTGTTATATACATATACCTTTTAAGAGGAGGAAT	0.573
CGACATGTCCCGCTTCTTTCATTAATCCGTTAGCAACTGTTTTGTTATATACATTGACCTTTTAAGAGGAGGAAT	2.01
CGACATGTCCCGCTTCTTTCATTAATCCGTTAGCAACTGTTTTGTTATATACATTTAACTTTTAAGAGGAGGAAT	0.617
CGACATGTCCCGCTTCTTTCATTAATCCGTTAGCAACTGTTTTGTTATATACATTTACCCTTTAAGAGGAGGAAT	0.388
CGACATGTCCCGCTTCTTTCATTAATCCGTTAGCAACTGTTTTGTTATATACATTTACCTTTTAAGAGGAGGAAT	0.453
CGACATGTCCCGCTTCTTTCATTAATCCGTTAGCAACTGTTTTGTTATATACATTTACGTTTTAAGAGGAGGAAT	0.39
CGACATGTCCCGCTTCTTTCATTAATCCGTTAGCAACTGTTTTGTTATATACATTTAGCTTTTAAGAGGAGGAAT	0.257
CGACATGTCCCGCTTCTTTCATTAATCCGTTAGCAACTGTTTTGTTATATACATTTATCTTTTAAGAGGAGGAAT	0.458
CGACATGTCCCGCTTCTTTCATTAATCCGTTAGCAACTGTTTTGTTATATATATTTACCTTTTAAGAGGAGGAAT	0.298
CGACATGTCCCGCTTCTTTCATTAATCCGTTAGCAACTGTTTTTATATATACATTTACCTTTTAAGAGGAGGAAT	0.669

Sequence	cleaved RNA product abundance
CGACATGTCCCGCTTCTTTCATTAATCCGTTAGCAACTGTTTTTCAATATACATTTACCTTTTAAGAGGAGGAAT	0.551
CGACATGTCCCGCTTCTTTCATTAATCCGTTAGCAACTGTTTTTCTAGATACATTTACCTTTTAAGAGGAGGAAT	0.378
CGACATGTCCCGCTTCTTTCATTAATCCGTTAGCAACTGTTTTTCTATAAACATTTACCTTTTAAGAGGAGGAAT	0.459
CGACATGTCCCGCTTCTTTCATTAATCCGTTAGCAACTGTTTTTCTATATACAATTACCTTTTAAGAGGAGGAAT	0.846
CGACATGTCCCGCTTCTTTCATTAATCCGTTAGCAACTGTTTTTCTATATACACTTACCTTTTAAGAGGAGGAAT	0.721
CGACATGTCCCGCTTCTTTCATTAATCCGTTAGCAACTGTTTTTCTATATACATATACCTTTTAAGAGGAGGAAT	0.656
CGACATGTCCCGCTTCTTTCATTAATCCGTTAGCAACTGTTTTTCTATATACATTTAACTTTTAAGAGGAGGAAT	0.675
CGACATGTCCCGCTTCTTTCATTAATCCGTTAGCAACTGTTTTTCTATATACATTTACATTTTAAGAGGAGGAAT	0.576
CGACATGTCCCGCTTCTTTCATTAATCCGTTAGCAACTGTTTTTCTATATACATTTACCTTTTAAGAGGAGGAAT	0.576
CGACATGTCCCGCTTCTTTCATTAATCCGTTAGCAACTGTTTTTCTATATACATTTACGTTTTAAGAGGAGGAAT	0.305
CGACATGTCCCGCTTCTTTCATTAATCCGTTAGCAACTGTTTTTCTATATACATTTTACCTTTTAAGAGGAGGAA	0.435
CGACATGTCCCGCTTCTTTCATTAATCCGTTAGCAACTGTTTTTCTATATAGATTTACCTTTTAAGAGGAGGAAT	0.925
CGACATGTCCCGCTTCTTTCATTAATCCGTTAGCAACTGTTTTTCTATATATATTTACCTTTTAAGAGGAGGAAT	0.668
CGACATGTCCCGCTTCTTTCATTAATCCGTTAGCAACTGTTTTTCTATATTCATTTACCTTTTAAGAGGAGGAAT	0.189
CGACATGTCCCGCTTCTTTCATTAATCCGTTAGCAACTGTTTTTCTCTATACATTTACCTTTTAAGAGGAGGAAT	0.337
CGACATGTCCCGCTTCTTTCATTAATCCGTTAGCAACTGTTTTTCTGTATACATTTACCTTTTAAGAGGAGGAAT	0.357
CGACATGTCCCGCTTCTTTCATTAATCCGTTAGCAACTGTTTTTGCTATATACATTTACCTTTTAAGAGGAGGAA	0.946
CGACATGTCCCGCTTCTTTCATTAATCCGTTAGCAACTGTTTTTGTATATACATTTACCTTTTAAGAGGAGGAAT	0.494
CGACATGTCCCGCTTCTTTCATTAATCCGTTAGCAACTGTTTTTTTATATACATTTACCTTTTAAGAGGAGGAAT	0.718
CGACATGTCCCGCTTCTTTCATTAATCCGTTAGCAACTTATTTGCTATATACATTTACCTTTTAAGAGGAGGAAT	1.85
CGACATGTCCCGCTTCTTTCATTAATCCGTTAGCAACTTGTTTTGCTATATACATTTACCTTTTAAGAGGAGGAA	1.01

Sequence	cleaved RNA product abundance
CGACATGTCCCGCTTCTTTCATTAATCCGTTAGCAACTTTATTGCTATATACATTTACCTTTTAAGAGGAGGAAT	0.922
CGACATGTCCCGCTTCTTTCATTAATCCGTTAGCAACTTTTGTGCTATATACATTTACCTTTTAAGAGGAGGAAT	1.05
CGACATGTCCCGCTTCTTTCATTAATCCGTTAGCAACTTTTTAGCTATATACATTTACCTTTTAAGAGGAGGAAT	0.565
CGACATGTCCCGCTTCTTTCATTAATCCGTTAGCAACTTTTTCGCTATATACATTTACCTTTTAAGAGGAGGAAT	0.662
CGACATGTCCCGCTTCTTTCATTAATCCGTTAGCAACTTTTTGGCTATATACATTTACCTTTTAAGAGGAGGAAT	0.563
CGACATGTCCCGCTTCTTTCATTAATCCGTTAGCAACTTTTTTACTATATACATTTACCTTTTAAGAGGAGGAAT	0.744
CGACATGTCCCGCTTCTTTCATTAATCCGTTAGCAACTTTTTTCCTATATACATTTACCTTTTAAGAGGAGGAAT	0.697
CGACATGTCCCGCTTCTTTCATTAATCCGTTAGCAACTTTTTTGCAATATACATTTACCTTTTAAGAGGAGGAAT	0.494
CGACATGTCCCGCTTCTTTCATTAATCCGTTAGCAACTTTTTTGCTATAAACATTTACCTTTTAAGAGGAGGAAT	1.58
CGACATGTCCCGCTTCTTTCATTAATCCGTTAGCAACTTTTTTGCTATATACAATTACCTTTTAAGAGGAGGAAT	1.63
CGACATGTCCCGCTTCTTTCATTAATCCGTTAGCAACTTTTTTGCTATATACATATACCTTTTAAGAGGAGGAAT	2.12
CGACATGTCCCGCTTCTTTCATTAATCCGTTAGCAACTTTTTTGCTATATACATTTAACTTTTAAGAGGAGGAAT	1.81
CGACATGTCCCGCTTCTTTCATTAATCCGTTAGCAACTTTTTTGCTATATACATTTACATTTTAAGAGGAGGAAT	1.72
CGACATGTCCCGCTTCTTTCATTAATCCGTTAGCAACTTTTTTGCTATATACATTTACCATTTAAGAGGAGGAAT	1.97
CGACATGTCCCGCTTCTTTCATTAATCCGTTAGCAACTTTTTTGCTATATACATTTACCGTTTAAGAGGAGGAAT	1.51
CGACATGTCCCGCTTCTTTCATTAATCCGTTAGCAACTTTTTTGCTATATACATTTACCTTTTAAGAGGAGGAAT	1.24
CGACATGTCCCGCTTCTTTCATTAATCCGTTAGCAACTTTTTTGCTATATACATTTACTTTTTAAGAGGAGGAAT	1.37
CGACATGTCCCGCTTCTTTCATTAATCCGTTAGCAACTTTTTTGCTATATACATTTTCCTTTTAAGAGGAGGAAT	0.343
CGACATGTCCCGCTTCTTTCATTAATCCGTTAGCAACTTTTTTGCTATATATATTTACCTTTTAAGAGGAGGAAT	0.911
